How the values were obtained:
Test in all cases: cell-based or functional assay
[1] = target: HIV-1 Env of isolate 93TH305, clade B, on pseudovirus (HIV-1)
[2] = target: HIV-1 Env of pseudovirus MGRM-F1-008 (HIV-1)
[3] = target: HIV-1 Env of pseudovirus MGRM-F1-015 (HIV-1)
[4] = target: HIV-1 Env of pseudovirus MGRM-F1-006 (HIV-1)
[5] = target: HIV-1 Env of isolate MGRM-D-026 (clade D pseudovirus) (HIV-1)
[6] = target: HIV-1 Env of isolate MGRM-D-022 (clade D pseudovirus) (HIV-1)
[7] = target: HIV-1 Env of isolate 92RW021 (clade A pseudovirus) (HIV-1)
[8] = target: HIV-1 Env of isolate LAVIC_18 (HIV-1)
[9] = target: HIV-1 Env of isolate 92UG046 (clade D pseudovirus) (HIV-1)
[10] = target: HIV-1 Env of isolate 92UG005 (clade D pseudovirus) (HIV-1)
[11] = target: HIV-1 Env of isolate NL43, clade B, on pseudovirus (HIV-1)
[12] = target: HIV-1 envelope glycoprotein (Env) of isolate MGRM-A-011, clade A (HIV-1)
[13] = target: HIV-1 Env of isolate 93MW959 (clade C) (HIV-1 isolate 93MW959)
[14] = target: HIV-1 Env of isolate MGRM-D-013 (clade D pseudovirus) (HIV-1)
[15] = target: HIV-1 envelope glycoprotein (Env) of isolate 94KE105, listed under clade A (HIV-1)
[16] = target: HIV-1 Env of pseudovirus MGRM-F1-020 (HIV-1)
[17] = target: HIV-1 Env of pseudovirus MGRM-G-009 (clade G) (HIV-1)
[18] = target: HIV-1 Env of isolate MGRM-Chronic-B-008, clade B, on pseudovirus (HIV-1)
[19] = target: aMLV envelope protein on pseudovirus (negative control)
[20] = target: HIV-1 Env of pseudovirus MGRM-G-027 (HIV-1, clade G isolate MGRM-G-027)
[21] = target: HIV-1 Env of isolate MGRM-D-020 (clade D pseudovirus) (HIV-1)
[22] = target: HIV-1 Env of isolate MGRM-D-002 (clade D pseudovirus) (HIV-1)
[23] = target: HIV-1 Env of isolate MGRM-AG-011 (subtype AG) (HIV-1)
[24] = target: HIV-1 Env of isolate MGRM-A-011 (subtype A) (HIV-1)
[25] = target: HIV-1 Env of isolate 93WR029 (HIV-1)
[26] = target: HIV-1 Env of isolate 98CN006 (HIV-1)
[27] = target: HIV-1 Env of isolate MG RM-D-019 (HIV-1)
[28] = target: HIV-1 Env of isolate MG RM-D-018 (HIV-1)
[29] = target: HIV-1 Env of isolate 93TH305 (HIV-1)
[30] = target: HIV-1 Env of isolate MG RM-D-003 (HIV-1)
[31] = target: HIV-1 envelope glycoprotein (Env) of isolate MGRM-C-028 (HIV-1)
[32] = target: HIV-1 Env of isolate MGRM-A-005 (HIV-1)
[33] = target: HIV-1 Env of isolate MG RM-D-004 (HIV-1)
[34] = target: HIV-1 Env of isolate MG RM-D-008 (HIV-1)
[35] = target: HIV-1 Env of isolate APV-17 (HIV-1)
[36] = target: HIV-1 Env of isolate MGRM-AE-007 (subtype AE) (HIV-1)
[37] = target: HIV-1 envelope glycoprotein (Env) of isolate MGRM-C-015 (HIV-1)
[38] = target: HIV-1 Env of isolate MGRM-Chronic-B-018 (subtype B) (HIV-1)
[39] = target: HIV-1 Env of isolate MG RM-D-021 (HIV-1)

5345_I01 (PGT-137) (antibody), sequence (VH): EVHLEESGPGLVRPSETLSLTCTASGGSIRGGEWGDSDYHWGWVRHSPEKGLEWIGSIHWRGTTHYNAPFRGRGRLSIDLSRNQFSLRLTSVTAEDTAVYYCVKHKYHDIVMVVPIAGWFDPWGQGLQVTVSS
5345_I01 (PGT-137) (antibody), sequence (VL): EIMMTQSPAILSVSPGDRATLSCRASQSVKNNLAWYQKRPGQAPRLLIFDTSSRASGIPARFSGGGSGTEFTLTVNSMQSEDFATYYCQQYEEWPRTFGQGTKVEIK
1443_C16 (PG16) (TCN-116) (antibody), sequence (VH): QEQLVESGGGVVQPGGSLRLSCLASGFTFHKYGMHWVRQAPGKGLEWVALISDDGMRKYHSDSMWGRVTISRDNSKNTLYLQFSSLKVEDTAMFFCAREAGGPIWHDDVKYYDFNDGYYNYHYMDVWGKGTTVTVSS
1443_C16 (PG16) (TCN-116) (antibody), sequence (VL): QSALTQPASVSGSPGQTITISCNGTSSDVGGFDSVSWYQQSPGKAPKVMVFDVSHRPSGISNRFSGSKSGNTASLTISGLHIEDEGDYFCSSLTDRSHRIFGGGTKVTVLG

1443_C16 (PG16) (TCN-116) (antibody)
IC50 (µg/ml), pseudovirus neutralization [1]: 19.3 µg/mL
IC50 (µg/ml), pseudovirus neutralization [2]: > 50 µg/mL
IC50 (µg/ml), pseudovirus neutralization [3]: > 50 µg/mL
IC50 (µg/ml), pseudovirus neutralization [4]: 0.27 µg/mL
IC50 (µg/ml), pseudovirus neutralization [5]: > 50 µg/mL
IC50 (µg/ml), pseudovirus neutralization [6]: > 50 µg/mL
IC50 (µg/ml), pseudovirus neutralization [7]: 0.11 µg/mL
IC50 [8]: 0.02 µg/mL
IC50 (µg/ml), pseudovirus neutralization [9]: 1.42 µg/mL
IC50 (µg/ml), pseudovirus neutralization [10]: > 50 µg/mL
IC50 (µg/ml), pseudovirus neutralization [11]: 0.02 µg/mL
IC50 (µg/ml), pseudovirus neutralization [12]: 0.24 µg/mL
IC50 (µg/ml), pseudovirus neutralization [13]: 0.007 µg/mL
IC50 (µg/ml), pseudovirus neutralization [14]: 0.11 µg/mL
IC50 (µg/ml), pseudovirus neutralization [15]: 6.13 µg/mL
IC50 (µg/ml), pseudovirus neutralization [16]: 4.35 µg/mL
IC50 [17]: > 50 µg/mL
IC50 (µg/ml), pseudovirus neutralization [18]: 0.73 µg/mL
IC90 (pseudovirus neutralization) [19]: > 50 µg/mL
IC50 (µg/ml), pseudovirus neutralization [20]: 0.01 µg/mL
IC50 (µg/ml), pseudovirus neutralization [21]: 16.3 µg/mL
IC50 (µg/ml), pseudovirus neutralization [22]: 0.01 µg/mL

5114_A19 (PGT-128) (antibody)
IC50 (µg/mL), pseudovirus neutralization [23]: 3.93 µg/mL
IC50 (µg/mL), pseudovirus neutralization [24]: > 50 µg/mL
IC50 [25]: > 50 µg/mL
IC50 (µg/mL), pseudovirus neutralization [26]: 0.015 µg/mL
IC50 (µg/mL), pseudovirus neutralization [27]: > 50 µg/mL
IC50 (µg/mL), pseudovirus neutralization [28]: 0.008 µg/mL
neutralization IC50 [29]: 0.006 µg/mL
IC50 (µg/mL), pseudovirus neutralization [30]: 0.019 µg/mL
IC50 (µg/mL), pseudovirus neutralization [31]: 14.4 µg/mL
IC50 [32]: > 50 µg/mL
IC50 (µg/mL), pseudovirus neutralization [33]: 24.9 µg/mL
IC50 (µg/mL), pseudovirus neutralization [34]: 0.033 µg/mL
neutralization IC50 [35]: 0.016 µg/mL
IC50 (µg/mL), pseudovirus neutralization [36]: > 50 µg/mL
IC50 (µg/mL), pseudovirus neutralization [37]: 0.196 µg/mL
IC50 neutralization [38]: 0.02 µg/mL
IC50 (µg/mL), pseudovirus neutralization [39]: 0.014 µg/mL

5136_H01 (PGT-131) (antibody)
IC50 (µg/mL), pseudovirus neutralization [23]: > 50 µg/mL
IC50 (µg/mL), pseudovirus neutralization [24]: > 50 µg/mL
IC50 [25]: > 50 µg/mL
IC50 (µg/mL), pseudovirus neutralization [26]: 35.3 µg/mL
IC50 (µg/mL), pseudovirus neutralization [27]: > 50 µg/mL
IC50 (µg/mL), pseudovirus neutralization [28]: 0.148 µg/mL
neutralization IC50 [29]: 0.016 µg/mL
IC50 (µg/mL), pseudovirus neutralization [30]: 19.6 µg/mL
IC50 (µg/mL), pseudovirus neutralization [31]: > 50 µg/mL
IC50 [32]: > 50 µg/mL
IC50 (µg/mL), pseudovirus neutralization [33]: 2.01 µg/mL
IC50 (µg/mL), pseudovirus neutralization [34]: > 50 µg/mL
neutralization IC50 [35]: > 50 µg/mL
IC50 (µg/mL), pseudovirus neutralization [36]: 0.026 µg/mL
IC50 (µg/mL), pseudovirus neutralization [37]: 1.01 µg/mL
IC50 neutralization [38]: > 50 µg/mL
IC50 (µg/mL), pseudovirus neutralization [39]: 0.106 µg/mL

5345_I01 (PGT-137) (antibody)
IC50 (µg/mL), pseudovirus neutralization [23]: > 50 µg/mL
IC50 (µg/mL), pseudovirus neutralization [24]: > 50 µg/mL
IC50 [25]: > 50 µg/mL
IC50 (µg/mL), pseudovirus neutralization [26]: 1.22 µg/mL
IC50 (µg/mL), pseudovirus neutralization [27]: > 50 µg/mL
IC50 (µg/mL), pseudovirus neutralization [28]: 15.1 µg/mL
neutralization IC50 [29]: > 50 µg/mL
IC50 (µg/mL), pseudovirus neutralization [30]: > 50 µg/mL
IC50 (µg/mL), pseudovirus neutralization [31]: > 50 µg/mL
IC50 [32]: > 50 µg/mL
IC50 (µg/mL), pseudovirus neutralization [33]: > 50 µg/mL
IC50 (µg/mL), pseudovirus neutralization [34]: > 50 µg/mL
neutralization IC50 [35]: > 50 µg/mL
IC50 (µg/mL), pseudovirus neutralization [36]: > 50 µg/mL
IC50 (µg/mL), pseudovirus neutralization [37]: 1.98 µg/mL
IC50 neutralization [38]: > 50 µg/mL
IC50 (µg/mL), pseudovirus neutralization [39]: > 50 µg/mL

b12 (antibody)
IC50 (µg/ml), pseudovirus neutralization [1]: 4.17 µg/mL
IC50 (µg/ml), pseudovirus neutralization [2]: > 50 µg/mL
IC50 (µg/ml), pseudovirus neutralization [3]: > 50 µg/mL
IC50 (µg/ml), pseudovirus neutralization [4]: > 50 µg/mL
IC50 (µg/ml), pseudovirus neutralization [5]: 1.55 µg/mL
IC50 (µg/ml), pseudovirus neutralization [6]: 17.6 µg/mL
IC50 (µg/ml), pseudovirus neutralization [7]: > 50 µg/mL
IC50 [8]: > 50 µg/mL
IC50 (µg/ml), pseudovirus neutralization [9]: 0.07 µg/mL
IC50 (µg/ml), pseudovirus neutralization [10]: > 50 µg/mL
IC50 (µg/ml), pseudovirus neutralization [11]: 0.17 µg/mL
IC50 (µg/ml), pseudovirus neutralization [12]: 4.01 µg/mL
IC50 (µg/ml), pseudovirus neutralization [13]: > 50 µg/mL
IC50 (µg/ml), pseudovirus neutralization [14]: > 50 µg/mL
IC50 (µg/ml), pseudovirus neutralization [15]: > 50 µg/mL
IC50 (µg/ml), pseudovirus neutralization [16]: > 50 µg/mL
IC50 [17]: > 50 µg/mL
IC50 (µg/ml), pseudovirus neutralization [18]: 2.82 µg/mL
IC90 (pseudovirus neutralization) [19]: > 50 µg/mL
IC50 (µg/ml), pseudovirus neutralization [20]: > 50 µg/mL
IC50 (µg/ml), pseudovirus neutralization [21]: > 50 µg/mL
IC50 (µg/ml), pseudovirus neutralization [22]: > 50 µg/mL
